Data as given in patent US20200385445A1 (COMPUGEN, published 2020).
Where a chain is given by its changes, count along the chain named.

T1: human PVRIG (Poliovirus Receptor Related Immunoglobulin Domain Containing Protein), full length on cells (human, UniProt Q6DKI7 41-326)
T1 construct: whole, on cells; Over-expressed on HEK293 (some pools flag-tagged) or endogenous on Jurkat, CA46, T cells, NK cells, TILs; also called hPVRIG; HEK hPVRIG
T1 sequence (looked up): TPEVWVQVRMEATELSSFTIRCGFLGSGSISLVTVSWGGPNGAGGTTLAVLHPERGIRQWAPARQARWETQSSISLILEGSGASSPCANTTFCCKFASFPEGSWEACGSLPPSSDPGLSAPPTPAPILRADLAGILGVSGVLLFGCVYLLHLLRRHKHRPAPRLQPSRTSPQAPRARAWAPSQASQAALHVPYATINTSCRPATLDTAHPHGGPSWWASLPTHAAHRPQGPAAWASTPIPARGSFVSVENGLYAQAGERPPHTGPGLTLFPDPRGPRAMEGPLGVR

B1: CPA.7.004 human IgG1 (antibody, V domains shown)
VH: EVQLVQSGAEVKKPGASVKVSCKVSGYTLTELSMHWVRQAPGKGLEWMGGFDPEDGETIYAQKFQGRVTMTEDTSTDTAYMELSSLRSEDTAVYYCATVSRVRGVINYYYYMDVWGKGTTVTVSS
VL: DVVMTQSPLSLPVTPGEPASISCRSSQSLLYRNGNNYLDWYLQKPGQSPQLLIYLGSNRASGVPDRFSGSGSGTDFTLKISRVEAEDVGVYYCMQALQTPPTFGGGTKLEIKR
B2: CPA.7.009 human IgG1 (antibody, V domains shown)
VH: EVQLVQSGAEVKKPGASVKVSCKVSGYTLTELSMHWVRQAPGKGLEWMGGFDPEDGETIYAQKFQGRVTMTEDTSTDTAYMELSSLRSEDTAVYYCATAKPGIAVAGQNYYYYYMDVWGKGTTVTVSS
VL: B1 VL
B3: CPA.7.010 human IgG1 (antibody, V domains shown)
VH: EVQLVESGGGLVQPGRSLRLSCAASGFTFSSYAMHWVRQAPGKGLEWVAVISYDGSNKYYADSVKGRFTISRDNSKNTLYLQMNSLRAEDTAVYYCASSPIGYSYGYWGGMDVWGQGTTVTVSS
VL: QAVLTQPASLSASPGASASLTCTLRSGIDVRTNKIFWYQVKPGSPPQHLLTFQSDSDKQQGSGVPSRFSGSKDASANAGILIISGLQSEDEADYYCLIWHTSGWVFGGGTQLTVLG
B4: CPA.7.011 human IgG1 (antibody, V domains shown)
VH: EVQLVQSGAEVKKPGASVKVSCKVSGYTLTELSMHWVRQAPGKGLEWMGGFDPEDGETIYAQKFQGRVTMTEDTSTDTAYMELSSLRSEDTAVYYCATGPAAAGVGYYYYMDVWGKGTTVTVSS
VL: B1 VL with N35Y, G105Q, L109V
B5: CPA.7.047 human IgG1 (antibody, V domains shown)
VH: B4 VH with G99A, P100F, A101P, A102E, G104T, V105I, G106S
VL: B1 VL with N35Y, L55W, N58Y, L97V, T99N, G105Q, L109V
B6: CPA.7.012 human IgG1 (antibody, V domains shown)
VH: EVQLVETGGGLIQPGRSLRLSCAASGFTFSSYAMHWVRQAPGKGLEWVAVISYDGSNKYYADSVKGRFTISRDNSKNTLYLQMNSLRAEDTAVYYCARDVMVYCSSTSCYFYGMDVWGQGTTVTVSS
VL: DIQMTQSPSSLSASVGDRVTVTCQASQDIRDYLNWYQKKPGKAPKLLIYDASNLEAGVPSRFSGSGSGTDFTFTISGLQPEDVATYYCQQFENLPITFGQGTRLEIKR
B7: CPA.7.014 human IgG1 (antibody, V domains shown)
VH: EVQLVQSGAEVKKPGASVKVSCKVSGYTLTELSMHWVRQAPGKGLEWMGGFDPEDGETIYAQKFQGRVTMTEDTSTDTAYMELSSLRSEDTAVYYCATGVTTYYYYGMDVWGQGTTVTVSS
VL: B1 VL with R32S, Y37F, Q50R, Y54S, V90I, G105Q, L109V
B8: CPA.7.015 human IgG1 (antibody, V domains shown)
VH: QITLKESGGGVVQPGGSLRLSCAASGFTFSSYGMHWVRQAPGKGLEWVAFIRYDGSNKYYADSVKGRFTISRDNSKNTLYLQMNSLRAEDTAVYYCARDLFDFWWDGMDVWGQGTTVTVSS
VL: EIVLTQSPGTLSLSPGEKATLSCRVSQSVSSMYLAWYQQKPGQAPRLLIYGASYRATGIPDRFSGSGSGTDFNLTISRLEPEDFAVYYCQQYVSSPMYTFGLGTKLEIKR
B9: CPA.7.016 human IgG1 (antibody, V domains shown)
VH: EVQLVQSGAEVKKPGSSVKVSCKTSGGTFSSSAISWVRQAPGQGFEWMGGIIPIYGITDYAQKFQGRVTITTDESTSTAYMELSSLTSEDTAVYYCARDDTARRVRGVPYYYYYAMDVWGQGTTVTVSS
VL: EIVLTQSPGTLSLSPGERATLSCRASQSVSSYLAWYQQKPGQAPRLLIYDASNRATGIPARFSGSGSGTDFTLTISSLQSEDFAVYYCQQYDDWPQTFGQGTRLEIKR
B10: CPA.7.017 human IgG1 (antibody, V domains shown)
VH: QVQLVQSGAEVKKPGSSVKVSCKASGGTFNNYGISWVRQAPGKGLEWMGQIIPLFGTTKYAQKFQGRVTIAADEPTSTAYMELGSLRSEDTAIYYCARDRMAADGMAVFDYWGQGTLVTVSS
VL: QSVLTQPPSVSGTPGQKVIISCSGSSSNIGRHFVFWYQQLPGTAPKLLIYKNDERPSGVPDRFSGSKSGTSASLAVSGLRSEDEADYYCSSWDAALNGVVFGGGTKLTVLG
B11: CPA.7.018 human IgG1 (antibody, V domains shown)
VH: EVQLVQSGAEVKKPGASVKVSCKVSGYTLTELSMHWVRQAPGKGLEWMGGFDPEDGETIYAQKFQGRVTMTEDTSTDTAYMELSSLRSEDTAVYYCATEVPMVRGARRYYYYMDVWGKGTTVTVSS
VL: DVVMTQSPLFLAVTPGEPASISCRSSQTLLYINENNYLDWYVQKPGQSPQLLIYLGSTRASGVPDRFSGGGSGTDFTLTISRVEAEDVGLYYCMQGLQTPPTFGQGTRLEIKR
B12: CPA.7.019 human IgG1 (antibody, V domains shown)
VH: QVQLQESGPGLVKSSETLSLTCSVSGGSISNSNYYWGWIRQPPGKGLEWIGGIYYSGSTYYNPSLESRVTISEDTSKNQISLKLSSVTAADTAVYYCARGAWELSLGDWFDPWGPGTLVTVSS
VL: QSVLTQPPSVSGAPGQRVTISCTGSSSNIGAGYDIQWYQQLPGTAPKLLIYGNNNRPSGVPDRFSGSRSGTSASLAITGLQAEDEADYYCQSYDSSLSVYVVFGGGTQLTVLG
B13: CPA.7.022 human IgG1 (antibody, V domains shown)
VH: B11 VH with E99G, M102A, V103A, R104I, A106V, R107Y, R108Y
VL: B1 VL with R32S, N35Y, Y54S, T99S, P101V, L109V
B14: CPA.7.040 human IgG1 (antibody, V domains shown)
VH: B11 VH with E99G, M102A, V103A, R104I, A106V, R107Y, R108Y
VL: B1 VL with N35Y, L55W, N58Y, L97V, T99N, G105Q, L109V, E110D
B15: CPA.7.023 human IgG1 (antibody, V domains shown)
VH: EVQLVQSGAEVKKPGASVKVSCKVSGYTLTELSMHWVRQAPGKGLEWMGGFDPEDGETIYAQKFQGRVTMTEDTSTDTAYMELSSLRSEDTAVYYCATDSRDGPAARGGYYYYMDVWGQGTTVTVSS
VL: B1 VL with P15L, E17Q, R32I, N35Y, G105Q, L109V
B16: CPA.7.024 human IgG1 (antibody, V domains shown)
VH: EVQLVQSGAEVKKPGSSVKVSCKASGGTFSSYAISWVRQAPGQGLEWMGGIIPIFGTANYAQKFQGRVTITADESTSTAYMELSSLRSEDTAVYYCARDAYYYDSSGYYNPDAFDIWGQGTMVTVSS
VL: B1 VL with Y31H, R32S, N35Y, N58S, G71V, A96G, P101R, G105R
B17: CPA.7.033 human IgG1 (antibody, V domains shown)
VH: B9 VH with E1Q, T24A
VL: ETTLTQSPAFMSATPGDEVNISCKASQDIDDDVSWYQQKPGGAPIFLIQEASTLVPGIPPRFSGSGFGTDFTLTIKNMESEDAAYYFCLQHDNLPLTFGGGTKVDIKR

Target: T1, human PVRIG (Poliovirus Receptor …)
Experiment: FACS dose titration on PVRIG over-expressing HEK293 cells
Experimental: FACS screening of the reformatted antibodies was done similarly to the PPE based screen described herein, except that a dose-dependent titration of the purified antibodies was performed. The human PVRIG over-expressing HEK293 cells, or the un-transfected HEK293 cells, were incubated with varying concentrations (0-10 μg/ml) of the anti PVRIG antibodies or isotype controls in FACS buffer at 4° C. for 60 mins. […] Cells were washed twice and re-suspended in a final volume of 80 μl of FACS buffer and Propidium Iodide (Biolegend cat #421301) diluted 1:1000. Samples were analyzed using an Intellicyt HTFC screening system (Intellicyt). Data was analyzed using FlowJo (DeNovo), exported to Excel (Microsoft) and plotted in GraphPad Prism (GraphPad Software, Inc.).
All unique ELISA and FACS binders were reformatted for expression as human IgG1 molecules in Expi293 cells. […] These reformatted antibodies were tested for retained binding to PVRIG over-expressing HEK293 cells alongside an irrelevant human IgG1 isotype control. All antibodies were also tested against un-transfected HEK293 cells.

Row | Binder | Kd
1 | B1 | 21.7 nM
2 | B2 | 33 nM
3 | B3 | 21.9 nM
4 | B4 | 66 nM
5 | B5 | 5.36 nM
6 | B6 | 0.3 nM
7 | B7 | 2.04 nM
8 | B8 | 1.34 nM
9 | B9 | 22 nM
10 | B10 | 1.82 nM
11 | B11 | 9.29 nM
12 | B12 | 0.45 nM
13 | B13 | 4.17 nM
14 | B14 | 0.79 nM
15 | B15 | 4.08 nM
16 | B16 | 9.08 nM
17 | B17 | 12.8 nM
